Measured values from paper PMC13544220, “Glycemic and bodyweight effects of GIPR coding variation reflect differences in surface expression and intrinsic functional impairment” (Science Advances, 2026).

How the values were obtained:
Format in all cases: cell-based, human
[1] = test system: wild-type and variant SNAP-GIPR; assay: Surface SNAP-GIPR expression (SNAP-tag labelling) in AD293 cells; conditions: for AD293 Surface: Fig S3E, mean; for Surface SNAP-GIPR expression: sheet Fig 1C;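 as to all read-outs here: scaled to the experimental average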
Method: (§1) Twenty-four hours before the experiment, AD293 or INS-1 cells were reverse transfected with GIPR variant or wild-type plasmids using Lipofectamine 2000 in 96-well, clear-bottom, black microplates precoated with poly-D-lysine. All variants were tested in parallel on each occasion to control for transfection efficiency differences between experiments. Cells were then labeled using the cell-impermeant probe SNAP-Surface Alexa Fluor 647 (500 nM, New England Biolabs, USA) for 10 min at room temperature to label only surface GIPR. […] Several fields of view (FOVs) were acquired within each well using a 20X, 0.75–numerical aperture (NA) air objective. Surface GIPR fluorescence was quantified after flat-field correction using BaSiC ([72]) and segmenting using Phantast ([73]), which generates a mask based on the phase contrast images to demarcate cell versus noncell. Wide-field imaging of the surface-specific labeling achieved by SNAP-Surface probes means that surface expression can be established from whole-cell fluorescence, after subtracting nonspecific fluorescence from a separate well containing nontransfected cells processed in parallel from the same experiment. Data were normalized by dividing by the average specific signal across each experiment, or by the wild-type value, as indicated in the figure legends.

[2] = test system: wild-type and variant SNAP-GIPR; assay: Surface SNAP-GIPR expression (SNAP-tag labelling) in INS-1 cells; conditions: Fig 4G; Mean
Method: as §1

[3] = test system: wild-type and variant SNAP-GIPR; assay: Single-concentration GIP cAMP response by HTRF in AD293 cells; conditions: Fig S3F, HTRF, mean;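 also: ratio to experiment-wide average response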
Method: (§2) All variants were tested in parallel on each occasion to control for transfection efficiency differences between experiments.

[4] = test system: wild-type and variant SNAP-GIPR; assay: Single-concentration GIP cAMP response by HTRF in INS-1 cells; conditions: Fig S3E, mean
Method: as §2

[5] = test system: wild-type and variant SNAP-GIPR; assay: cADDis cAMP imaging in AD293 cells, ensemble, expression-matched and per decile; conditions: Fig S3F, cADDis, mean
Method: AD293 cells were reverse transfected with the GIPR variant or wild-type plasmids using Lipofectamine 2000 and cotransduced with the cADDis Green Up BacMam (10 μl per well, Montana Molecular, USA), in 96-well, poly-D-lysine–coated microplates. All variants were tested in parallel on each occasion to control for transfection efficiency differences between experiments. After 24 hours, cells were labeled using 500 nM SNAP-Surface Alexa Fluor 647 for 10 min at room temperature. Cells were washed three times and then imaged in KRBH buffer containing 6 mM glucose and 0.1% BSA. Imaging was performed at 37°C by wide-field microscopy using the same microscope as in the “Assessment of surface GIPR expression by SNAP-tag labeling in cell lines” section, with 9 FOVs for both cADDis and SNAP-Surface fluorescence acquired from each well using a 10X, 0.45 NA air objective. […] Flat-field correction was performed using BaSiC ([72]), drift correction was performed using SIFT, and a maximum intensity projection of the cADDis channel was used to segment individual cells. cAMP responses were determined by quantifying the cADDis fluorescence intensity for each cell at each time point. Nonviable cells or noncell objects were excluded according to criteria for allowable cell IBMX/FSK responses. […] The cADDis mask was then used to quantify the SNAP-Surface signal from each cell. Wild-type SNAP-Surface readings were split into deciles, and these deciles were subsequently used to categorize variant-transfected cells to match against the wild type. After trimming the top and bottom deciles, the mean was taken of each decile mean for surface expression level or cAMP response, which achieved matched expression levels by effectively applying an inverse weighting to counteract differences in cell number in each decile for different variants. Ensemble expression levels or cAMP responses were calculated without regard to deciles. Variant cADDis responses were also analyzed within their own surface expression deciles.

[6] = test system: wild-type and variant SNAP-GIPR; assay: Constitutive and agonist-mediated internalization, reversible SNAP-tag labelling, AD293 cells; parameters: key to Internalisation, Vehicle / Internalisation, +GIP / Internalisation, GIP-only: % internalization: residual fluorescence after Mesna vs pre-Mesna; Surface expression: unit not given here; conditions: Mean
Method: (§3) Twenty-four hours before the experiment, AD293 or INS-1 cells were reverse transfected with GIPR variant or wild-type plasmids using Lipofectamine 2000 in 96-well, clear-bottom, black microplates precoated with poly-D-lysine. All variants were tested in parallel on each occasion to control for transfection efficiency differences between experiments. […] Media were then removed, cells washed with PBS and then placed in TNE buffer (pH 8.6) for imaging. […] After 10 min, the well was reimaged again to detect remaining fluorescence from internalized GIPR. Images were analyzed as in the “Assessment of surface GIPR expression by SNAP-tag labeling in cell lines” section, with the residual specific fluorescence after Mesna treatment expressed relative to the pre-Mesna value to establish percentage internalization.

[7] = test system: wild-type and variant SNAP-GIPR; assay: Constitutive and agonist-mediated internalization, reversible SNAP-tag labelling, INS-1 cells; parameters: key to Internalisation, GIP-only / Internalisation, Vehicle / Internalisation, +GIP: % internalization: residual fluorescence after Mesna vs pre-Mesna; conditions: Mean
Method: as §3

B1: A268V (protein, UniProt P48546 22-466, looked up, variant A268V)
Gastric inhibitory …: RAETGSKGQTAGELYQRWERYRRECQETLAAAEPPSGLACNGSFDMYVCWDYAAPNATARASCPWYLPWHHHVAAGFVLRQCGSDGQWGLWRDHTQCENPEKNEAFLDQRLILERLQVMYTVGYSLSLATLLLALLILSLFRRLHCTRNYIHINLFTSFMLRAAAILSRDRLLPRPGPYLGDQALALWNQALAACRTAQIVTQYCVGANYTWLLVEGVYLHSLLVLVGGSEEGHFRYYLLLGWGAPVLFVIPWVIVRYLYENTQCWERNEVKAIWWIIRTPILMTILINFLIFIRILGILLSKLRTRQMRCRDYRLRLARSTLTLVPLLGVHEVVFAPVTEEQARGALRFAKLGFEIFLSSFQGFLVSVLYCFINKEVQSEIRRGWHHCRLRRSLGEEQRQLPERAFRALPSGSGPGEVPTSRGLSSGTLPGPGNEASRELESYC
- AD293 Surface ([1]; column repeated, paired with cAMP 100 nM): 1.382
- AD293 Surface ([1]; paired with cAMP 100 pM): 1.382
- Surface SNAP-GIPR expression ([1]; replicate 1): 1.352
- Surface SNAP-GIPR expression ([1]; replicate 2): 1.469
- Surface SNAP-GIPR expression ([1]; replicate 3): 1.684
- Surface SNAP-GIPR expression ([1]; replicate 4): 1.15
- Surface SNAP-GIPR expression ([1]; replicate 5): 1.545
- Surface SNAP-GIPR expression ([1]; replicate 6): 1.48
- Surface SNAP-GIPR expression ([1]; replicate 7): 1.735
- Surface SNAP-GIPR expression ([1]; replicate 8): 0.9896
- Surface SNAP-GIPR expression ([1]; replicate 9): 1.756
- Surface SNAP-GIPR expression ([1]; replicate 10): 1.344
- Surface SNAP-GIPR expression ([1]; replicate 11): 1.392
- Surface SNAP-GIPR expression ([1]; replicate 12): 1.329
- Surface SNAP-GIPR expression ([1]; replicate 13): 1.75
- Surface SNAP-GIPR expression ([1]; replicate 14): 1.057
- Surface SNAP-GIPR expression ([1]; replicate 15): 1.196
- Surface SNAP-GIPR expression ([1]; replicate 16): 1.17
- Surface SNAP-GIPR expression ([1]; replicate 17): 1.366
- Surface SNAP-GIPR expression ([1]; replicate 18): 1.286
- Surface SNAP-GIPR expression ([1]; replicate 19): 1.239
- Surface SNAP-GIPR expression ([1]; replicate 20): 1.203
- Surface SNAP-GIPR expression ([1]; replicate 21): 1.125
- Surface SNAP-GIPR expression ([1]; replicate 22): 1.189
- Surface SNAP-GIPR expression ([1]; replicate 23): 1.374
- Surface SNAP-GIPR expression ([1]; replicate 24): 1.314
- Surface SNAP-GIPR expression ([1]; replicate 25): 1.303
- Surface SNAP-GIPR expression ([1]; replicate 26): 1.296
- Surface SNAP-GIPR expression ([1]; replicate 27): 1.545
- Surface SNAP-GIPR expression ([1]; replicate 28): 1.175
- Surface SNAP-GIPR expression ([1]; replicate 29): 1.642
- Surface SNAP-GIPR expression ([1]; replicate 30): 1.674
- Surface SNAP-GIPR expression ([1]; replicate 31): 1.459
- Surface SNAP-GIPR expression ([1]; replicate 32): 1.555
- Surface SNAP-GIPR expression ([1]; replicate 33): 1.663
- Surface SNAP-GIPR expression ([1]; replicate 34): 1.328
- Surface SNAP-GIPR expression ([1]; replicate 35): 1.277
- Surface SNAP-GIPR expression ([1]; replicate 36): 1.382
- Surface SNAP-GIPR expression ([1]; replicate 37): 1.6
- Surface SNAP-GIPR expression ([1]; replicate 38): 1.461
- Surface SNAP-GIPR expression ([1]; replicate 39): 1.123
- Surface SNAP-GIPR expression ([1]; replicate 40): 1.335
- Surface SNAP-GIPR expression ([1]; replicate 41): 1.367
- Surface expression [2]: 1.2654
- AD293 100 pM HTRF ([3]; AD293, 100 pM): 2.332
- AD293 100 nM HTRF ([3]; AD293, 100 nM): 1.283
- INS-1 cAMP (100 nM) [4]: 1.343
- AD293 100 pM cADDis ([5]; AD293, 100 pM): 34.2441
- AD293 100 nM cADDis ([5]; AD293, 100 nM): 37.42
- +GIP internalisation (100 nM) ([6]; Fig 4E, GIP 100 nM): 0.7963
- GIP-specific internalisation (100 nM) ([6]; Fig 4E, GIP 100 nM): 0.2682
- Constitutive internalisation (100 nM) ([6]; Fig 4E): 0.5281
- Surface expression ([6]; Fig 4E): 1.472
- Internalisation, +GIP ([6]; Fig S4C, AD293): 57.341
- Internalisation, GIP-only ([6]; Fig S4C, AD293): 19.4051
- Internalisation, Vehicle ([6]; Fig S4C, AD293): 37.9359
- +GIP internalisation (100 nM) ([7]; Fig 4G, GIP 100 nM): 0.6195
- GIP-specific internalisation (100 nM) ([7]; Fig 4G, GIP 100 nM): 0.1687
- Constitutive internalisation (100 nM) ([7]; Fig 4G): 0.4508
- Internalisation, +GIP ([7]; Fig S4C, INS-1): 51.1233
- Internalisation, GIP-only ([7]; Fig S4C, INS-1): 13.9983
- Internalisation, Vehicle ([7]; Fig S4C, INS-1): 37.125
